Series [1] deals with Tumour necrosis factor-alpha (TNF-alpha) (Homo sapiens, UniProt P01375 77-233). As to the kind of experiment: OECT gate-voltage shift; negligible, non-monotonic shifts over the tested range; Kelvin probe in agreement; PBS (immobilization and rinse PBS pH 7.4); FO-SPR 10 min per concentration step; aptamer folded 95 C 5 min, ice 15 min, RT 5 min; assay temperature not stated. To be noted: protein: recombinant; chain copies: 3; label: none.

The target in series [2] is Interleukin-6 (IL-6) (UniProt P05231 30-212). As to the kind of experiment: FO-SPR; aptamer immobilized on pALT5c film; 100 fg/mL to 1 ug/mL IL-6 in PBS; no response without aptamer; PBS (immobilization and rinse PBS pH 7.4); FO-SPR 10 min per concentration step; aptamer folded 95 C 5 min, ice 15 min, RT 5 min; assay temperature not stated. As to conditions: label: none.
Chain of Interleukin-6 (IL-6) (P05231 30-212): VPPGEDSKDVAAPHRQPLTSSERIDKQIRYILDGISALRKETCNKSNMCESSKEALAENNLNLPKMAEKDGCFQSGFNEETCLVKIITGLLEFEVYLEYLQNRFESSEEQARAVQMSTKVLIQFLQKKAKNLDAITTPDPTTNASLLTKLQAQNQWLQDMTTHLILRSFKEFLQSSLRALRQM

The results in this text go back to publication PMC13674618, “Electropolymerized Aptasensor for Femtogram‐Level Cytokine Detection”.

Chain of Tumour necrosis factor-alpha (TNF-alpha) (P01375 77-233): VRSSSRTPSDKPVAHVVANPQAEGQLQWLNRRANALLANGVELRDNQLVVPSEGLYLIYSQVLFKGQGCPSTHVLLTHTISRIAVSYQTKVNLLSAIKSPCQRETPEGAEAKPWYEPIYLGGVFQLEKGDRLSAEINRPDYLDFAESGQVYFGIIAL

Turning to CTTCCAACGCTCGTATTGTCAGTCTTTAGT (ssDNA, 5'-AminoC6) [IL-6 specific aptamer (Apt)], the figures for the binding result in series [1] and in series [2] were “no binding” and “binds”, respectively.
